Target: UNC5H4 receptor of the pericytes and smooth muscle cells
Assay: cell-based or functional assay

B1: mutated netrin 4 (SEQ ID NO: 522), recombinant protein (ligand)
chain: LSGVAGVSSRCEKACNPRMGNLALGRKLWADTTCGQNATELYCFYSENTDLTCRQPKCDKCNAAYPHLAHLPSAMADSSFRFPRTWWQSAEDVHREKIQLDLEAEFYFTHLIVMFKSPRPAAMVLDRSQDFGKTWKPYKYFATNCSATFGLEDDVVKKGAICTPKYSSPFPCTGGEVIFKALSPPYDTENPYSAKVQEQLKITNLRVQLLKRQSYPCQRNDLNEEPQHFTHYAIYDFIVKGSCFCNGHADQCIPVHGFRPVKAPGTFHMVHGKCMCKHNTAGSHCQHCAPLYNDRPWEAADGKTGAPNECRTRKCNGHADTCHFDVNVWEASGSRSGGVCDDCQHNTEGQYCQRCKPGFYRDLRRPFSAPDACKPCSCHPVGSAVLPANSVTFCDPSNGDCPCKPGVAGRRCDRCMVGYWGFGDYGCRPCDCAGSCDPITGDCISSHTDIDWCHEVPDFRPVHNKSEPAWEWEDAQGFSALLHSGKCECKEQTLGKAKAFCGMKYSYVLKIKILSAHDKGTHVEVNVKIKKVLKSTKLKIFRGKRTLYPESWTDRGCTCPILNPGLEYLVAGHEDIRTGKLIVNMKSFVQHWKPSLGRKVMDILKRECK
- VSM migration: chemotactic activity relative to non-mutated netrin 4: 3000 fold over non-mutated netrin 4
- VSM proliferation: mitogenic activity relative to non-mutated netrin 4: 1000 fold over non-mutated netrin 4

From patent US20100183588A1 (IVS INSTITUT DES VAISSEAUX ET DU SANG, published 2010)
